From the supplement of paper PMC7877785
± gives the uncertainty stated by the source.

Assay: self-splicing fitness, log relative to wild type (ln ratio); higher = more splicing; Tetrahymena group I intron in knt gene, E. coli kanamycin selection, DiMSum; sequences stand for … in CUCUCU…GGAGGGAAAAGUUAUCAGGCAUGCACCUGGUAGCUAGUCUUUAAACCAAUAGAUUGCAUCGGUUUAAAAGGCAAGACCGUCAAAUUGCGGGAAAGGGGUCAACAGCCGUUCAGUACCAAGUCUCAGGGGAAACUUUGAGAUGGCCUUGCAAAGGGUAUGGUAAUAAGCUGACGGACAUGGUCCUAACCACGCAGCCAAGUCCUAAGUCAACAGAUCUUCUGUUGAUAUGGAUGCAGUUCACAGACUAAAUGUCGGUCGGGGAAGAUGUAUUCUUCUCAUAAGAUAUAGUCGGACCUCUCCUUAAUGGGAGCUAGCGGAUGAAGUGAUGCAACACUGGAGCCGCUGGGAACUAAUUUGUAUGCGAAAGUAUAUUGAUUAGUUUUGGAGUACUCGUGGUCG
Procedure, shortened: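 Colonies from six replicate transformations of E. coli BL21(DE3) were pooled and amplicon-sequenced on an Illumina HiSeq 2500. The library placed an intron with all eight P1ex-region nucleotides randomised inside the knt kanamycin-resistance gene on pET-22b(+), and cells grew overnight at 37°C or 30°C on LB agar with or without 25 μg/mL kanamycin (plus 100 μg/mL carbenicillin, 50 μM IPTG, 0.2% rhamnose). Fitness is the DiMSum error-weighted combination of wild-type-normalised replicate fold changes, kanamycin versus none.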

Sequence: UUCCAGCAAUAUUACGGCGG
- self-splicing fitness (ln) (30 °C): -3.09 ± 0.17
- self-splicing fitness (ln) (37 °C): -2.72 ± 0.27

Sequence: UUCCAGCAAUAUUACGGGUA
- self-splicing fitness (ln) (30 °C): -0.292 ± 0.08
- self-splicing fitness (ln) (37 °C): 0.0398 ± 0.088

Sequence: UUCCAGCAAUAUUACGGUCC
- self-splicing fitness (ln) (30 °C): -1.79 ± 0.15
- self-splicing fitness (ln) (37 °C): -2.18 ± 0.17

Sequence: UUCCAGCAAUAUUACGUCCU
- self-splicing fitness (ln) (30 °C): -2.67 ± 0.21
- self-splicing fitness (ln) (37 °C): -2.29 ± 0.32

Sequence: UUCCAGCAAUAUUACGUCUA
- self-splicing fitness (ln) (30 °C): -0.638 ± 0.082
- self-splicing fitness (ln) (37 °C): 0.0519 ± 0.093

Sequence: UUCCAGCAAUAUUACGUCUC
- self-splicing fitness (ln) (30 °C): -3.17 ± 0.23
- self-splicing fitness (ln) (37 °C): -1.83 ± 0.2

Sequence: UUCCAGCAAUAUUACGUGAC
- self-splicing fitness (ln) (30 °C): -2.56 ± 0.2
- self-splicing fitness (ln) (37 °C): -1.89 ± 0.21

Sequence: UUCCAGCAAUAUUACGUUCU
- self-splicing fitness (ln) (37 °C): -3.34 ± 0.31

Sequence: UUCCAGCAAUAUUACGUUUC
- self-splicing fitness (ln) (30 °C): -3.24 ± 0.23
- self-splicing fitness (ln) (37 °C): -2.17 ± 0.21

Sequence: UUCGAGCAAUAUUACGAAGG
- self-splicing fitness (ln) (30 °C): -2.09 ± 0.23
- self-splicing fitness (ln) (37 °C): -1.62 ± 0.27

Sequence: UUCGAGCAAUAUUACGAAUA
- self-splicing fitness (ln) (37 °C): -1.26 ± 0.3

Sequence: UUCGAGCAAUAUUACGACGU
- self-splicing fitness (ln) (30 °C): -3.55 ± 0.24
- self-splicing fitness (ln) (37 °C): -1.85 ± 0.14

Sequence: UUCGAGCAAUAUUACGACUU
- self-splicing fitness (ln) (30 °C): -3.32 ± 0.29
- self-splicing fitness (ln) (37 °C): -1.49 ± 0.29

Sequence: UUCGAGCAAUAUUACGAGAA
- self-splicing fitness (ln) (37 °C): -0.969 ± 0.32

Sequence: UUCGAGCAAUAUUACGAGGC
- self-splicing fitness (ln) (30 °C): -2.45 ± 0.29
- self-splicing fitness (ln) (37 °C): -2.98 ± 0.3

Sequence: UUCGAGCAAUAUUACGAUCU
- self-splicing fitness (ln) (30 °C): -2.66 ± 0.19
- self-splicing fitness (ln) (37 °C): -1.83 ± 0.23

Sequence: UUCGAGCAAUAUUACGAUUA
- self-splicing fitness (ln) (30 °C): -1.39 ± 0.26
- self-splicing fitness (ln) (37 °C): -0.875 ± 0.25

Sequence: UUCGAGCAAUAUUACGCACU
- self-splicing fitness (ln) (37 °C): -1.76 ± 0.38

Sequence: UUCGAGCAAUAUUACGCAUA
- self-splicing fitness (ln) (30 °C): -3.18 ± 0.42
- self-splicing fitness (ln) (37 °C): -1.39 ± 0.26

Sequence: UUCGAGCAAUAUUACGCGGG
- self-splicing fitness (ln) (30 °C): -3.26 ± 0.43
- self-splicing fitness (ln) (37 °C): -2.07 ± 0.32

Sequence: UUCGAGCAAUAUUACGCUUU
- self-splicing fitness (ln) (30 °C): -3.89 ± 0.26
- self-splicing fitness (ln) (37 °C): -2.56 ± 0.21

Sequence: UUCGAGCAAUAUUACGGUGA
- self-splicing fitness (ln) (30 °C): -1.33 ± 0.1
- self-splicing fitness (ln) (37 °C): -0.708 ± 0.11

Sequence: UUCGAGCAAUAUUACGGUGC
- self-splicing fitness (ln) (30 °C): -3.24 ± 0.31
- self-splicing fitness (ln) (37 °C): -2.29 ± 0.29

Sequence: UUCGAGCAAUAUUACGUAUU
- self-splicing fitness (ln) (37 °C): -2.79 ± 0.43

Sequence: UUCGAGCAAUAUUACGUCCG
- self-splicing fitness (ln) (30 °C): -3.05 ± 0.24
- self-splicing fitness (ln) (37 °C): -1.24 ± 0.28

Sequence: UUCGAGCAAUAUUACGUCGA
- self-splicing fitness (ln) (37 °C): -1.49 ± 0.19

Sequence: UUCGAGCAAUAUUACGUGAU
- self-splicing fitness (ln) (30 °C): -1.8 ± 0.2
- self-splicing fitness (ln) (37 °C): -1.35 ± 0.21

Sequence: UUCGAGCAAUAUUACGUGCU
- self-splicing fitness (ln) (30 °C): -2.02 ± 0.18

Sequence: UUCGAGCAAUAUUACGUGUC
- self-splicing fitness (ln) (30 °C): -3.11 ± 0.23
- self-splicing fitness (ln) (37 °C): -2.77 ± 0.34

Sequence: UUCGAGCAAUAUUACGUUAA
- self-splicing fitness (ln) (30 °C): -2.16 ± 0.31
- self-splicing fitness (ln) (37 °C): -1.82 ± 0.21

Sequence: UUCUAGCAAUAUUACGAAAU
- self-splicing fitness (ln) (30 °C): -2.85 ± 0.28
- self-splicing fitness (ln) (37 °C): -1.75 ± 0.32

Sequence: UUCUAGCAAUAUUACGACAC
- self-splicing fitness (ln) (30 °C): -2.05 ± 0.27
- self-splicing fitness (ln) (37 °C): -1.71 ± 0.28

Sequence: UUCUAGCAAUAUUACGAGAG
- self-splicing fitness (ln) (30 °C): -2.3 ± 0.22
- self-splicing fitness (ln) (37 °C): -2.4 ± 0.29

Sequence: UUCUAGCAAUAUUACGAGGU
- self-splicing fitness (ln) (30 °C): -3.27 ± 0.31
- self-splicing fitness (ln) (37 °C): -1.53 ± 0.2

Sequence: UUCUAGCAAUAUUACGAUCC
- self-splicing fitness (ln) (37 °C): -2.65 ± 0.38

Sequence: UUCUAGCAAUAUUACGCAAA
- self-splicing fitness (ln) (30 °C): -0.225 ± 0.3
- self-splicing fitness (ln) (37 °C): -1.23 ± 0.27

Sequence: UUCUAGCAAUAUUACGCACG
- self-splicing fitness (ln) (30 °C): -1.26 ± 0.26
- self-splicing fitness (ln) (37 °C): -0.399 ± 0.3

Sequence: UUCUAGCAAUAUUACGCCAC
- self-splicing fitness (ln) (37 °C): -2.02 ± 0.46

Sequence: UUCUAGCAAUAUUACGCCAU
- self-splicing fitness (ln) (30 °C): -2.66 ± 0.32

Sequence: UUCUAGCAAUAUUACGCCCA
- self-splicing fitness (ln) (30 °C): -1.55 ± 0.16
- self-splicing fitness (ln) (37 °C): -1.37 ± 0.14

Sequence: UUCUAGCAAUAUUACGCCCU
- self-splicing fitness (ln) (30 °C): -2.51 ± 0.27
- self-splicing fitness (ln) (37 °C): -0.693 ± 0.19

Sequence: UUCUAGCAAUAUUACGCGGA
- self-splicing fitness (ln) (30 °C): -3.93 ± 0.3
- self-splicing fitness (ln) (37 °C): -3.75 ± 0.33

Sequence: UUCUAGCAAUAUUACGGGCU
- self-splicing fitness (ln) (30 °C): -3.73 ± 0.36
- self-splicing fitness (ln) (37 °C): -3.76 ± 0.36

Sequence: UUCUAGCAAUAUUACGGGGG
- self-splicing fitness (ln) (30 °C): -3.75 ± 0.37
- self-splicing fitness (ln) (37 °C): -2.09 ± 0.22

Sequence: UUCUAGCAAUAUUACGGGGU
- self-splicing fitness (ln) (30 °C): -3.67 ± 0.33
- self-splicing fitness (ln) (37 °C): -1.92 ± 0.24

Sequence: UUCUAGCAAUAUUACGGUAA
- self-splicing fitness (ln) (30 °C): -1.17 ± 0.13
- self-splicing fitness (ln) (37 °C): -0.408 ± 0.085

Sequence: UUCUAGCAAUAUUACGGUAU
- self-splicing fitness (ln) (37 °C): -0.561 ± 0.24

Sequence: UUCUAGCAAUAUUACGGUCA
- self-splicing fitness (ln) (30 °C): -0.883 ± 0.15
- self-splicing fitness (ln) (37 °C): -0.729 ± 0.11

Sequence: UUCUAGCAAUAUUACGUAAG
- self-splicing fitness (ln) (30 °C): -2.51 ± 0.15
- self-splicing fitness (ln) (37 °C): -0.938 ± 0.15

Sequence: UUCUAGCAAUAUUACGUAGC
- self-splicing fitness (ln) (37 °C): -2.19 ± 0.31

Sequence: UUCUAGCAAUAUUACGUCAA
- self-splicing fitness (ln) (30 °C): -1.21 ± 0.13
- self-splicing fitness (ln) (37 °C): -1.43 ± 0.16

Sequence: UUCUAGCAAUAUUACGUGCA
- self-splicing fitness (ln) (30 °C): -1.23 ± 0.13
- self-splicing fitness (ln) (37 °C): -1.59 ± 0.16

Sequence: UUCUAGCAAUAUUACGUGGG
- self-splicing fitness (ln) (30 °C): -3.08 ± 0.16
- self-splicing fitness (ln) (37 °C): -2.39 ± 0.15
